The source of these data is article PMC7132299 (Proceedings of the National Academy of Sciences of the …, 2020).

The test system of data set [1] is wild-type pollen tubes. Put plainly: Pollen tube growth assay after peptide addition. Format: cell-based, Arabidopsis thaliana. The note with it: peptide at 50 and 100 nM.
Data set [2] concerns the target LRX11 (insect-cell protein, limits not stated for the experiment) (Arabidopsis thaliana). Briefly: SEC-MALS.
Data set [3] addresses LRX8 (insect-cell protein, limits not stated for the experiment) (Arabidopsis thaliana). Put plainly: SEC-MALS. On the technique in general: Size exclusion chromatography separates by hydrodynamic size, large species first.
The target of data set [4] is biotinylated LRX8 (49 to 400) fused to a noncleavable Avi-tag (Arabidopsis thaliana). Put plainly: grating-coupled interferometry.
For data set [5], the target named is LLG2 ectodomain (residues 24 to 135) (Arabidopsis thaliana) (UniProt Q6NLF4). Put plainly: ITC. In general terms: In ITC the heat of successive injections is recorded.
For data set [6], the target named is LLG3 ectodomain (residues 24 to 137) (Arabidopsis thaliana) (UniProt Q9M0I0). Briefly: ITC.
In data set [7] the target is LRX8_(49–400) (Arabidopsis thaliana). Put plainly: ITC.
The target of data set [8] is LRX8_(C157A.Y87A.A133F) (Arabidopsis thaliana). Put plainly: ITC.
Data set [9] concerns the target LLG3 ectodomain (residues 24 to 137) (Arabidopsis thaliana) (UniProt Q9M0I0). Put plainly: ITC. This is another data set of the same source.
The target of data set [10] is LRX8_(49–400) (Arabidopsis thaliana). Put plainly: ITC. The source holds these as a separate data set.
The target is the same in data set [11]. Put plainly: ITC. This is another data set of the same source.
Data set [12] deals with the molecule itself. Briefly: SEC-MALS.

Like-named read-outs stand apart in the source and are kept apart here.

LLG3 ectodomain (residues 24 to 137) (Arabidopsis thaliana), sequence (Q9M0I0 24-137): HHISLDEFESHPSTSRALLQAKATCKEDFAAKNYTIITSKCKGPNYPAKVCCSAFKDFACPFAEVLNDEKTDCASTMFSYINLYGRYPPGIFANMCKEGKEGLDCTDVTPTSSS
LLG2 ectodomain (residues 24 to 135) (Arabidopsis thaliana), sequence (Q6NLF4 24-135): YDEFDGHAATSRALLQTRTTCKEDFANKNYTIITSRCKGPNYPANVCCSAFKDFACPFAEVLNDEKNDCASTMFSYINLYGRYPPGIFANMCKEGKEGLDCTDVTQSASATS

For the molecule “PTYNSCRRKCKRDRGYAARRYKRYRYVNADIKRNHSGYPCRICSRLYGRN [RALF4scrambled]”, the “effect on pollen tube growth, in words” value in data set [1] is “no effect”.

One may read the stoichiometry N as the number of molecules, sites or subunits per partner or assembly. The molecule “LRX11 (insect-cell protein, limits not stated for the experiment) (domain or fragment)” had a stoichiometry N in [2] of 2.

As usually defined, the kon is the second-order rate constant of association. A higher kon goes with fast association. Usually Kd stands for the free concentration of one partner at which half of the binding sites on the other are occupied at equilibrium, for simple one-to-one binding. Low values mean higher affinity, high ones lower affinity. Turning to “RALF4_(folded) (RALF4 residues 58 to 110, isolated from insect cells) (peptide)”, the stoichiometry N in [2] and in [3] was 1 in each case. In data set [4], this molecule yielded a kon of 400000 M⁻¹ s⁻¹. In addition, the Kd worked out at 500 nM in [5]; 1500 nM in data set [6]; 100 nM in data set [7]; 2.5 nM in data set [8]; 11000 nM in data set [9]; 3.5 nM in data set [10].

For RRYIGYDALKKNNVPCSRRGRSYYDAKKRRRNNPYRRGCSAITHAYRYAR [RALF4_(C86A.C105A)], in data set [11], the fold reduction of affinity (against RALF4 (folded)) was 10 fold.

In data set [11], RRYIGYDALKKNNVPCSRRGRSAADCKKRRRNNPYRRGCSAITHCYRYAR [RALF4_(Y83A.Y84A)] displayed a dissociation constant (Kd) of 1400 nM.

RRYIGYDALKKNNVPASRRGRSYYDAKKRRRNNPYRRGASAITHAYRYAR [RALF4_(C76A.C86A.C99A.C105A)]: in [11], the fold reduction of affinity (against RALF4 (folded)) stood at 10 fold.

As for RRYIGYDALKKNNVPCSRRGRSYYDCKKRRRNNPYRRGCSAITHCYRYAR [RALF4_(synthetic)], the Kd in data set [11] worked out at 60 nM.

B1: LRX8 (insect-cell protein, limits not stated for the experiment) (domain or fragment)
chain: ENGDLPDDIEYEVDLDLKFANNRLKRAYIALQAWKKAFYSDPFNTAANWVGPDVCSYKGVFCAPALDDPSVLVVAGIDLNHADIAGYLPPELGLLTDVALFHVNSNRFCGVIPKSLSKLTLMYEFDVSNNRFVGPFPTVALSWPSLKFLDIRYNDFEGKLPPEIFDKDLDAIFLNNNRFESTIPETIGKSTASVVTFAHNKFSGCIPKTIGQMKNLNEIVFIGNNLSGCLPNEIGSLNNVTVFDASSNGFVGSLPSTLSGLANVEQMDFSYNKFTGFVTDNICKLPKLSNFTFSYNFFNGEAQSCVPGSSQEKQFDDTSNCLQNRPNQKSAKECLPVVSRPVDCSKDKCAGG
modifications: N-glycosylated
For B1, in [12], the “stoichiometry N” value came to 2.
